EC50 data for 1 molecule are collected here from patent US20210270842A1 (DYAX, published 2021).

The target of assay [1] is T1, cleaved high molecular weight kininogen (HMWK) (human, UniProt P01042 19-380; P01042 390-644).
T1 construct: also called cleaved HMWK; 2-chain HMWK
T1 sequence 1: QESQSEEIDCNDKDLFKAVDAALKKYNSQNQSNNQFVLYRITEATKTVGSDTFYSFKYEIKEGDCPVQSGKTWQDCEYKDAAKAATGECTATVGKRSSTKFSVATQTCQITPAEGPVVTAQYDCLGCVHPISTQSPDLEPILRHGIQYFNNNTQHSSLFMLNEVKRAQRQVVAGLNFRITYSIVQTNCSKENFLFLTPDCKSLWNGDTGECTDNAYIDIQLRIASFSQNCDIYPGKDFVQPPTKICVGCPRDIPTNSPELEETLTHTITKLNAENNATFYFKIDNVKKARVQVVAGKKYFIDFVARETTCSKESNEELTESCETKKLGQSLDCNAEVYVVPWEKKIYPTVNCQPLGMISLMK
T1 sequence 2: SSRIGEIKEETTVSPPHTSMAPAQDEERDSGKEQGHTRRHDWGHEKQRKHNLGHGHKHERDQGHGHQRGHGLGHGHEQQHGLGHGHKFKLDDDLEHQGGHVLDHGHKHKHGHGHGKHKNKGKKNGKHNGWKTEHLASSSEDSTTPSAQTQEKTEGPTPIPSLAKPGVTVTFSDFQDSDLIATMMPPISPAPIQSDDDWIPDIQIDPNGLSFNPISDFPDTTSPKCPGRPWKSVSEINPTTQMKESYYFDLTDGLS
The experiment in a line: sandwich ELISA: Fab coated on 96-well plate, kininogen titrated, detection 11H05 + 13B12 and goat anti-mouse-HRP; value = C, midpoint of the printed 4-P fit; 2-chain HMWK spiked into SBT assay buffer. An excerpt: (§1) Purified cleaved HMWK was spiked into SBT assay buffer (circles) or HMWK-deficient plasma (squares). Purified intact HMWK was spiked into SBT assay buffer (triangles). Purified LMWK was spiked into SBT assay buffer (diamonds). The y-axis presents the ELISA signal in absorbance units, and the x-axis presents the concentration of kininogen in μg/mL.
(§2) The following day, the plate was washed and then blocked with 2% BSA (Protease/IgG free) in PBS buffer. Following a wash, samples containing cleaved HMWK in 0.1% BSA buffer in PBS with 0.05% Tween-20 (2-Chain HMWK assay buffer). Purified protein standards (e.g., 2-chain HMWK, intact HMWK or LMWK) were spiked into HMWK-deficient plasma and diluted 1:320 in 2-chain HMWK assay buffer. Following plate washing with PBST, a mixture of 2 mouse monoclonal antibodies (11H05 and 13B12) at 1 μg/mL in 2-chain HMWK assay buffer were added for 1 hour at room temperature. Unbound detection antibodies were washed and a 1:2000 dilution of goat anti-mouse secondary antibody conjugated to horseradish peroxidase (HRP) was added. […] Signal was detected by the addition of 3,3′,5,5′-tetramethylbenzidine (TMB), an HRP substrate. […] Hydrolysis of a TMB substrate was detected using a microplate reader at 450 nm-630 nm (FIG. 3). […] Using these immunoassay conditions, specifically binding to cleaved HMWK was detected.
(In an ELISA, binding on a coated surface is turned into a signal by an enzyme label.)

The target in assay [2] is T1, cleaved high molecular weight kininogen …. The experiment in a line: sandwich ELISA with coated Fab; value = C, midpoint of the printed 4-P fit; 2-chain HMWK spiked into assay buffer, analysed in 2.5% plasma.
Source text: (§3) Purified cleaved HMWK was spiked into SBT assay buffer (open circles), SBT assay buffer and analyzed in the presence of 10% plasma (squares), or HMWK-deficient plasma and analyzed in the presence of 10% plasma (triangles). Purified cleaved HMWK was also spiked into assay buffer and analyzed in the presence of 2.5% plasma (diamonds) or HMWK deficient plasma and analyzed in the presence of 2.5% plasma (closed circles). The y-axis presents the ELISA signal in absorbance units, and the x-axis presents the concentration of kininogen in μg/mL.
as §2, with “temperature.” for “temperature. Unbound detection antibodies were washed and a 1:2000 dilution of goat anti-mouse secondary antibody conjugated to horseradish peroxidase (HRP) was added.”

For assay [3] the target is unchanged. The experiment in a line: sandwich ELISA with coated Fab; value = C, midpoint of the printed 4-P fit; 2-chain HMWK spiked into SBT buffer, analysed in 10% plasma.
Source text: as §3
as §2, with “temperature.” for “temperature. Unbound detection antibodies were washed and a 1:2000 dilution of goat anti-mouse secondary antibody conjugated to horseradish peroxidase (HRP) was added.”

The target in assay [4] is T2, intact high molecular weight kininogen (HMWK) (Homo sapiens, UniProt P01042 19-644).
T2 construct: also called intact HMWK; 1-chain HMWK
T2 sequence: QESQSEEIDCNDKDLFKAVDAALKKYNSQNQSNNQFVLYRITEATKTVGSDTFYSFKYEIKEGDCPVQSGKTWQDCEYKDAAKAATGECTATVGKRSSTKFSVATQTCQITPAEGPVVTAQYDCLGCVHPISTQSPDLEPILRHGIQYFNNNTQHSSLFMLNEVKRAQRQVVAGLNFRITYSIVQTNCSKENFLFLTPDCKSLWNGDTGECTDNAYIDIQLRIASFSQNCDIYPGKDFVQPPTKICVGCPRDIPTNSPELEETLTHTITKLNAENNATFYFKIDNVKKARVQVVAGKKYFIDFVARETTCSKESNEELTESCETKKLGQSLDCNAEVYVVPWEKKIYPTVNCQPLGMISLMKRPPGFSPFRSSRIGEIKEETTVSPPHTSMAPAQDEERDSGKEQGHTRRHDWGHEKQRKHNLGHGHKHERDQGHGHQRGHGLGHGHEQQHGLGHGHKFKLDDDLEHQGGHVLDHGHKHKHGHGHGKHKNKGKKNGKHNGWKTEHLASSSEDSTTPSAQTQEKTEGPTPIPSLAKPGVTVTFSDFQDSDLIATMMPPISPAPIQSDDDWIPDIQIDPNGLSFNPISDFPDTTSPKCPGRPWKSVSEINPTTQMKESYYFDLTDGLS
The experiment in a line: optimized sandwich ELISA: M004-B04 capture, detection 11H05 + 13B12; value = C of the printed 4-P fit; the curve has no upper plateau in the range: last point about 0.95 at about 250 ng/mL, fitted line about 1.5 at 1000 ng/mL, so C and D are extrapolated. The method, then:
The following day, the plate was washed and then blocked with 2% BSA (Protease/IgG free) in PBS buffer. Following a wash, samples containing cleaved HMWK in 0.1% BSA buffer in PBS with 0.05% Tween-20 (2-Chain HMWK assay buffer). Purified protein standards (e.g., 2-chain HMWK, intact HMWK or LMWK) were spiked into HMWK-deficient plasma and diluted 1:320 in 2-chain HMWK assay buffer. Following plate washing with PBST, a mixture of 2 mouse monoclonal antibodies (11H05 and 13B12) at 1 μg/mL in 2-chain HMWK assay buffer were added for 1 hour at room temperature. Unbound detection antibodies were washed and a 1:2000 dilution of goat anti-mouse secondary antibody conjugated to horseradish peroxidase (HRP) was added. The assay containing the secondary antibody was incubated for 1 hour at room temperature, and unbound secondary antibody was removed by washing with 2-chain HMWK assay buffer. Signal was detected by the addition of 3,3′,5,5′-tetramethylbenzidine (TMB), an HRP substrate. The reaction was stopped with phosphoric acid. Hydrolysis of a TMB substrate was detected using a microplate reader at 450 nm-630 nm (FIG. 3). […] Using these immunoassay conditions, specifically binding to cleaved HMWK was detected.

Assay [5] addresses T1, cleaved high molecular weight kininogen …. Nature of the assay: sandwich ELISA: Fab coated on 96-well plate, kininogen titrated, detection 11H05 + 13B12 and goat anti-mouse-HRP; value = C, midpoint of the printed 4-P fit; 2-chain HMWK spiked into HMWK-deficient plasma.
Source text: as §1, §2

B1: 559B-M0004-B04 (Fab, V domains shown)
VH: EVQLLESGGGLVQPGGSLRLSCAASGFTFSFYVMVWVRQAPGKGLEWVSGISPSGGNTAYADSVKGRFTISRDNSKNTLYLQMNSLRAEDTAVYYCARKLFYYDDTKGYFDFWGQGTLVTVSS
VL: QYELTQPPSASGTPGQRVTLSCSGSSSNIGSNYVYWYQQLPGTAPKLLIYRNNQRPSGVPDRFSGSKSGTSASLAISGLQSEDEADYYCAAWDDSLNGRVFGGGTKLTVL
notes: also called M004-B04
The EC50 is the concentration that produces a half-maximal response. As to B1, the EC50 in assay [1] is 235 µg/mL; in assay [2] it was 204 µg/mL; in assay [3], 184 µg/mL; in assay [4], 0.355 µg/mL; in assay [5], 247 µg/mL.
